In patent US20170137511A1:

Molecular target: biotinylated human IL-15 (R&D Systems cat. no. NF150) (human) (UniProt P40933)
Assay: blocking ELISA: biotinylated human IL-15 (100 pM) binding to plate-bound IL-15Rα-Fc, antibody titrated, streptavidin-peroxidase, absorbance at 450 nm; the filing does not say in words which of the two partners the control antibody binds

biotinylated human IL-15 (R&D Systems cat. no. NF150) (human), sequence (P40933 49-162 limits assumed): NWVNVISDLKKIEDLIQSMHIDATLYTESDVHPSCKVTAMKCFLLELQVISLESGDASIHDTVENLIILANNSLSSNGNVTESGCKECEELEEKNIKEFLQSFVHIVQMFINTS

IC50 (read off the curve): 10 µg/mL
Substance: antibody known to block IL-15 binding to IL-15Rα (R&D Systems cat. no. NF150)
